Biological target: human EGFR-WT (human) (UniProt P00533)

**Q.** Which potency of hEpiregulin against hEGF for recruitment of the seven SH2 biosensors to the plasma membrane (ebBRET, Fig. 2a), HEK293 cells with EGFR-WT, 10 min (fold less potent than hEGF) does the source give for “human recombinant Epiregulin (from UniProt O14944 63-108) (ligand)” here?
**A.** > 100

From article PMC10907714
